Test results taken from US20040166109A1 (AVENTIS PHARMA S A, published 2004).

T1: GAL4 transactivating domain fusion of the central region of human hnRNPL (amino acids 116 to 464), brain … (human, UniProt P14866 147-495, limits assumed)
T1 construct: Two-hybrid prey isolated in the screen; also called central portion of hnRNPL
T1 sequence: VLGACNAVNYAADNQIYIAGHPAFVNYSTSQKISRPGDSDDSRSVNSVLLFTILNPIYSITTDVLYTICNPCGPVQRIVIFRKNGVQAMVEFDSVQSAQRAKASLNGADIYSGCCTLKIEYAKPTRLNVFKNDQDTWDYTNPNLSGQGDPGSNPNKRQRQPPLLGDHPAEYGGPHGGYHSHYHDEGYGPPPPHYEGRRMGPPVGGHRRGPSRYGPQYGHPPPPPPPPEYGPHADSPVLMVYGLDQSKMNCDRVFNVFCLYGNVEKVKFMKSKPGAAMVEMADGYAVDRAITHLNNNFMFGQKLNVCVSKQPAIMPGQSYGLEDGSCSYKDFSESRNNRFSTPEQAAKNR

T2: GAL4 transactivating domain fusion of the FEBP1 (FE65 Binding PTB1 domain protein) fragment of 337 amino … (human, UniProt Q9UH62 44-379, limits assumed)
T2 construct: Two-hybrid prey isolated from a human brain cDNA library; a fragment of FEBP1, limits on the whole protein not known; also called fragment of the FEBP1 protein
T2 sequence: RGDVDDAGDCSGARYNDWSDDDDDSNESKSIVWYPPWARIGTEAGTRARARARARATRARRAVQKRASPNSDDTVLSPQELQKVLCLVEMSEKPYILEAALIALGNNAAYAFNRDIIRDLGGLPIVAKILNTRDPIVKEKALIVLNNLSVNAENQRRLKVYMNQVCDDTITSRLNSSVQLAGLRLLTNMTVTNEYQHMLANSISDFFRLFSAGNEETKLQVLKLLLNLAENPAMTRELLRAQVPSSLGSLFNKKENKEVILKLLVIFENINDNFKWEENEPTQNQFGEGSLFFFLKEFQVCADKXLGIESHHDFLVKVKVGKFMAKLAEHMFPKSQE

B1: LexA fusion of the PTB1 domain of the human FE65 protein (amino acids 395 to 543), expressed from pLex-FE65PTB1 (other)
chain: PPRNTNPGIKCFAVRSLGWVEMTEEELAPGRSSVAVNNCIRQLSYHKNNLHDPMSGGWGEGKDLLLQLEDETLKLVEPQSQALLHAQPIISIRVWGVGRDSGRDFAYVARDKLTQMLKCHVFRCEAPAKNIATSLHEICSKIMAERRNA
notes: Two-hybrid bait expressed in yeast strain L40; PTB1 fragment cloned between XmaI and SalI downstream of LexA; also called PTB1 domain of FE65; not shown: LexA protein encoded by vector pLex9 (pBTM116); N-terminal fusion partner
B2: GAL4 transactivating domain fusion of the cytoplasmic domain of the APP protein, expressed from pGAD-App (other, UniProt P05067 723-770, looked up, not shown: large carriers)
chain: LKKKQYTSIHHGVVEVDAAVTPEERHLSKMQQNGYENPTYKFFEQMQN
notes: domain: cytoplasmic domain; Control prey; also called C-terminal domain of the APP

What was measured:
Assay in all cases: yeast two-hybrid (LexA bait, GAL4 AD prey), beta-galactosidase filter assay
[1] = target: T1, GAL4 transactivating domain fusion of …
[2] = target: T2, GAL4 transactivating domain fusion of …
[3] = target: B1

binding result [1]	binding result [2]	binding result [3]	Binder
binds	binds	–	B1
–	–	no binding	B2
